The record followed here is patent US11160869B2 (priority 2019, dated 2021).

In one data set the test system is plasma cytokines, IL-1Ra. Briefly: MSD 10-plex proinflammatory panel and plasma IL-1Ra immunoassay, oxazolone dose-response. Set-up: species or system mice. To be noted: mouse, in vivo. The text has this:
(§1) Plasma cytokines were quantified using the V-plex Proinflammatory Panel 1 Mouse Kit. Plasma IL-1Ra was quantitated by sandwich immunoassay using an antibody pair from the Mouse IL-1Ra/IL-1F3 DuoSet ELISA (R&D Systems #DY480), Streptavidin SULFO-TAG Labeled (MSD #R32AD-1), Multi-Array 96 Plate Pack, SECTOR Plate MSD #L15XA-3 and Read Buffer T (4×) (MSD #R92TC-2). Samples were read on the QuickPlex SQ 120 plate reader (Meso Scale Discovery, Rockville, Md.).

A further data set concerns STAT3. Briefly: In vivo pSTAT3 induction in lamina propria, immunofluorescence confocal microscopy. The arrangement: species or system Balb/C mice. The procedure: In vivo studies in mice were performed where the biological activity of human IL-10 following transcytosis was assessed for its ability to stimulate the mouse IL-10 receptor and increase phosphorylation of STAT3 (pSTAT3) in cells within the lamina propria.
An extensive amount of rhIL-10 (SEQ ID NO: 5) was trafficked through enterocytes. Additionally, there were a population of lymphocyte-like cells at the basolateral surface of enterocytes and within the lamina propria that were pSTAT3 positive.
Entire intestines of mice were isolated and processed as a “swiss role” and localization of pSTAT3 was detected by immunofluorescence confocal microscopy (FIG. 110).

The subject of data set [1] is IL-1Ra. As to the kind of experiment: Single oral capsule dose in NHP: plasma IL-1Ra. It counts as in vivo, Macaca fascicularis. The procedure: The purpose of the IL-1Ra assay was to measure endogenous IL-1Ra in NHP plasma. The antibody pair in this sandwich immunoassay reacted with both human and NHP IL-1Ra. Samples were quantitated using an 8-point standard curve prepared from a human IL-1Ra calibrator (ranging from 5.5-4021 pg/mL, plus 0 pg/mL). Biotinylated anti-NHP IL-1Ra capture antibody was added to a MSD Small Spot Streptavidin plate and incubated for an hour at RT with shaking. Controls that represent low ([…]), mid ([…]) and high concentrations (3245 pg/mL) were prepared in pooled plasma, Standards (Calibrator 9 Blend) were prepared in Diluent 43 (MSD Cat No R50AG), and samples diluted 10 fold in Diluent 43. Standards, controls and diluted samples were added to the assay plate, and the plate incubated for 2 hours at room temperature with shaking. The plate was washed 3 times with PBST, and 1× SULFO TAG anti-IL-1Ra Antibody added to the plate. The plate was incubated for 1 hour at room temperature with shaking. Following a wash step, 2×MSD Read buffer was added to the wells of the plate, and the plate read using the MSD Sector Imager 600 plate reader. The lower limit of detection of each analyte is defined as 2.5 standard deviation above background.
IL-10 delivery construct dosing at multiple fixed doses in non-naïve adult male Macaca fascicularis was conducted by Valley Biosystems (West Sacramento, Calif.). […] Dosing groups are described in TABLE 45.

Data set [2] deals with IL-1Ra. As to the kind of experiment: Systemic IL-1Ra in non-inflamed mice (ELISA MSD). It counts as in vivo. To be noted: construct 10 mg/kg; rhIL-10 3 mg/kg; oral. (In general: In an ELISA, binding on a coated surface is turned into a signal by an enzyme label.)
Data set [3] has as its system human peripheral blood mononuclear cells (PBMCs). Briefly: LPS-induced TNFα, IL-6 and HLA-DR in PBMC monocytes, flow cytometry. To be noted: pre-treatment. On the technique in general: In flow cytometry, cells or beads pass a laser one at a time.
A short description of data set [4]: Plasma rhIL-10, IL-10 delivery construct and IL-1Ra immunoassays, DSS study. The class given is in vivo, mice. Particulars: 0.3 and 3 mg/kg, 4 hours after final dose.
Source text: as §1
The Human IL-10 Base kit (MSD #K151AOA-4) was used to measure rhIL-10 in plasma. […] The MSD Small Spot IL-10 plate was incubated with Diluent 41 (25 μL/well) for 30 minutes at room temperature with shaking before use. Controls and samples were diluted 2-fold with pooled CD-1 mouse plasma (BioIVT, custom order), and the calibration standards were also prepared in mouse plasma. Standards, diluted samples and controls were added (25 μL/well), and the plate was incubated for 2 hours at room temperature with shaking. The plate was washed 3 times with phosphate buffered saline with Tween-20 (PBST), and 25 μL/well 1×SULFO TAG Anti-human IL-10 Antibody (prepared in Diluent 45) was added to the plate. The plate was incubated for 1 hour at room temperature with shaking. Following a wash step, 150 μL/well of 2×MSD Read buffer was added, and the plate was read in the MSD Sector Imager 600 plate reader.

The subject of data set [5] is cells of the lamina propria (LAMP1, CD11c, CD19, CD34, CD3). As to the kind of experiment: Cell targeting in the lamina propria after intraluminal injection, immunofluorescence. It counts as in vivo, Wistar rats. The method, then: Rats were anesthetized using inhaled isoflurane and euthanized by inhaled CO2.
Experiments were initiated by making an approximately 4 cm abdominal incision to access the mid-jejunum region of the small intestine. After performing the incision, 50 μl of a prepared solution of the IL-10 delivery construct (typically at about 1 mg/mL) was injected into the intestinal lumen of an area devoid of foodstuffs through a 27-gauge needle using a 1 mL syringe. The mesentery adjacent to the site of injection was labeled with a marker and the intestine was returned to the abdominal cavity, with the incision being closed with clamps.
At specific times, the injected intestine was retrieved, surgically isolated and flushed with a 4° C. isotonic PBS. Washed, excised samples were fixed (4% paraformaldehyde in PBS) overnight at 4° C. before dehydration through graded series of ethanol/water solutions and overnight incubation in chloroform.
Dehydrated tissues were immersed in wax, sectioned, and mounted on poylysine slides and processed for antigen retrieval using sodium citrate. Afterward, sections were permeabilised with 0.2% Triton-X100 in PBS prior to thrice washing in PBS and blocking with 2% BSA+2% serum of the animal the secondary antibodies have been raised. Primary antibodies were diluted in 1% BSA, 0.1% Triton-X100 in PBS and incubated overnight at 4° C. in humidified air. Fluorescent secondary antibodies were diluted in 1% BSA, 0.1% Triton-X100 in PBS and incubated for 2 h at RT prior to processing for confocal microscopy. On occasion, an approximately 1 cm section of intestine at the injection site was collected for biochemical studies.
Proteins for specific cell types were examined by immuno-fluorescence using confocal microscopy. The IL-10 delivery construct components (the carrier, also referred to herein as “cholix,” and IL-10) were followed separately with either a polyclonal antibody (pAb) or monoclonal antibody (mAb) to IL-10 or a pAb or mAb to the carrier domain to allow co-localization with pAb or mAbs available (TABLE 46).

B1: IL-10 delivery construct: recombinant homodimeric fusion protein: N-terminal methionine, cholix386 domain, polyGlySer spacer, recombinant human IL-10 (protein)
chain: MVEEALNIFDECRSPCSLTPEPGKPIQSKLSIPSDVVLDEGVLYYSMTINDEQNDIKDEDKGESIITIGEFATVRATRHYVNQDAPFGVIHLDITTENGTKTYSYNRKEGEFAINWLVPIGEDSPASIKISVDELDQQRNIIEVPKLYSIDLDNQTLEQWKTQGNVSFSVTRPEHNIAISWPSVSYKAAQKEGSRHKRWAHWHTGLALCWLVPMDAIYNYITQQNCTLGDNWFGGSYETVAGTPKVITVKQGIEQKPVEQRIHFSKGNAMSALAAHRVCGVPLETLARSRKPRDLTDDLSCAYQAQNIVSLFVATRILFSHLDSVFTLNLDEQEPEVAERLSDLRRINENNPGMVTQVLTVARQIYNDYVTHHPGLTPEQTSAGAQAGGGGSGGGGSGGGGSPGQGTQSENSCTHFPGNLPNMLRDLRDAFSRVKTFFQMKDQLDNLLLKESLLEDFKGYLGCQALSEMIQFYLEEVMPQAENQDPDIKAHVNSLGENLKTLRLRLRRCHRFLPCENKSKAVEQVKNAFNKLQEKGIYKAMSEFDIFINYIEAYMTMKIRN
modifications: homodimer
For the molecule B1, the “plasma cytokines, MSD 10-plex, vs Vehicle” value in the data set with plasma cytokines, IL-1Ra was “no significant differences”. Besides, the “phosphorylation of STAT3 in cells within the lamina propria” value with STAT3 (intraluminal injection into jejunum) is “increased phosphorylation of STAT3”. Also, the “IL-10 activity (pSTAT3) along the intestine” value with STAT3 (oral gavage) is “demonstrated along the length of intestine”. For the same molecule, in the data set on IL-1Ra [1] (82 mg, oral), the “plasma IL-1Ra Cmax” value was 26,367 pg/mL and the “time of plasma IL-1Ra Cmax” value was determined as 3 hours post-dose. Besides, the “time by which plasma IL-1Ra returned to baseline” value in the data set with IL-1Ra [1] (all dose groups) was not above 24 h. Further, the “plasma IL-1Ra and IFN-γ after oral enteric-coated capsules” value in the data set on IL-1Ra [1] (compared with intravenous administration) was “increased IL-1Ra without significant induction of IFN-γ”. Besides, in the data set with IL-1Ra [2], the “increase of systemic IL-1Ra” value is “about 3 fold”. Moreover, in data set [3], the “LPS-induced secreted TNFα” value was “dose-dependent reduction” and the “LPS-induced surface expression of HLA-DR” value was “dose-dependent reduction”. Besides, the “plasma rhIL-10 relative to background of Vehicle treatment” value in data set [4] is 10-300 fold higher. Besides, the “time by which an extensive amount reached the lamina propria” value in data set [5] (1-minute pulse, intraluminal injection) is given as not above 15 min. In addition, the “co-localization with LAMP1-positive lysosomes in enterocytes” value in data set [5] (15-minute time course) is reported as “little or no co-localization”. Further, in data set [5] (lamina propria), the “co-localization with CD3 antigen (T lymphocytes)” value is listed as “striking co-localizations”, the “co-localization with CD19-positive cells (B-lymphocytes)” value is recorded as “failed to co-localize” and the “co-localization with CD34-positive cells (endothelia)” value was “failed to co-localize”. Moreover, the “co-localization with CD11c (dendritic cells)” value in data set [5] (rat jejunum lamina propria) was “did not co-localize with CD11c antigen to any striking extent”.
